# Where two headings read alike, the source gives them in different places.
# T1: mouse CCR8 expressed on 293T cells (mouse, UniProt P56484 1-353)
# T1 construct: whole, on cells
# T1 sequence (looked up): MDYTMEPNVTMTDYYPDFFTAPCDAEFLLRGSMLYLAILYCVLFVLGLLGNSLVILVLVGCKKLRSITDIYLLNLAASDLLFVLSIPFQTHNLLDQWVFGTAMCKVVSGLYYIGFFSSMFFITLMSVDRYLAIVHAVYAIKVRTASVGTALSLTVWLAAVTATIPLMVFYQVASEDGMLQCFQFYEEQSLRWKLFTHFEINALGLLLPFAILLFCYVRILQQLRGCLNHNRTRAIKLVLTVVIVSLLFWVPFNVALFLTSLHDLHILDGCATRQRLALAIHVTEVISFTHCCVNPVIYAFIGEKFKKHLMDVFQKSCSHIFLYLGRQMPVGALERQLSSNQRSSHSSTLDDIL
# T2: Cynomolgus CCR8-ECD-Fc (cynomolgus monkey)
# T2 construct: also called CyCCR8-ECD-Fc; Cynomolgus CCR8-Fc
# T2 chain: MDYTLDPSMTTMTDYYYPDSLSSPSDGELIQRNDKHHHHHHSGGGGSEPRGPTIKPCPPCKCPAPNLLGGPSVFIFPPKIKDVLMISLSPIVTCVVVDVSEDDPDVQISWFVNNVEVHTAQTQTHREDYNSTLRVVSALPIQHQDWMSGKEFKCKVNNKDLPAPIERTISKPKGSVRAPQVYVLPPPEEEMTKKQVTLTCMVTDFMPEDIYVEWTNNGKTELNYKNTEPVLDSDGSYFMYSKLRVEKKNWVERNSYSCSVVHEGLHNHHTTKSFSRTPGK
# T3: Human CCR8-ECD-Fc (human)
# T3 construct: also called HuCCR8-ECD-Fc; huCC8-ECD-Fc
# T3 chain: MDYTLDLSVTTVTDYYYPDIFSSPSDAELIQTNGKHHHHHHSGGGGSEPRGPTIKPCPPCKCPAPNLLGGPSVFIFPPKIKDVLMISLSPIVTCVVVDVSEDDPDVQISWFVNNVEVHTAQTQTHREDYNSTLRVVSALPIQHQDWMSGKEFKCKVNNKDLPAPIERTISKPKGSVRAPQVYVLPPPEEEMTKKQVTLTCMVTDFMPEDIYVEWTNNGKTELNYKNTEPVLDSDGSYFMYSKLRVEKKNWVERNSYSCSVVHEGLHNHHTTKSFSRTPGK
# Columns and labels:
# [1] = biological target: T1, mouse CCR8 expressed on 293T cells; assay: flow cytometry, mouseCCR8-293T cells, fold geomean over secondary alone
# [2] = biological target: T4, human CCR8 (C-C chemokine receptor type 8) expressed on cells (human, UniProt P51685 1-355); assay: on-cell affinity, flow cytometry on 293T cells expressing human CCR8
# T4 construct: also called HuCCR8
# Cynomolgus CCR8-ECD-Fc [3] = biological target: T2, Cynomolgus CCR8-ECD-Fc; assay: binding to CyCCR8-ECD-huFc protein (so in the source), OD45-570nm (so in the source)
# Human CCR8-ECD-Fc [4] = biological target: T3, Human CCR8-ECD-Fc; assay: binding to HuCCR8-ECD-moFc protein (so in the source), OD45-570nm (so in the source)
# [5] = biological target: T4, human CCR8 (C-C chemokine receptor type …); assay: flow cytometry, HuCCR8-293T cells, fold geomean over secondary alone
# [6] = biological target: T1, mouse CCR8 expressed on 293T cells; assay: flow cytometry, MoCCR8-293T cells, fold geomean over secondary alone
# [7] = biological target: T5, cynomolgus monkey CCR8 expressed on cells (cynomolgus monkey, UniProt G7NYJ2 1-355); assay: on-cell affinity, flow cytometry on 293T cells expressing cyno CCR8
# T5 construct: whole, on cells; also called cyno CCR8; CyCCR8
# [8] = biological target: T6, amyloid precursor-like protein 2 (APLP2) (UniProt Q06481 32-763, limits assumed); assay: on-cell Kd, antibody titration on cells expressing APLP2, flow cytometry
# T6 construct: whole, on cells
# [9] = biological target: T4, human CCR8 (C-C chemokine receptor type …); assay: flow cytometry competition on Raji-CCR8 cells; competitor: fluorescently-conjugated BIOLEGEND anti-human CCR8 antibody at a single concentration
# Method: To characterize the binding cite of the CCR8 antibodies, CCR8 antibodies were incubated with Raji-CCR8 cells in a dose-dependent manner in 96-well plates at 4° C. for 30 min. Unbound CCR8 antibodies were washed away and the cells were incubated with a fluorescently-conjugated human monoclonal anti-CCR8 antibody (commercially available) at a single concentration for 30 min at 37° C. Upon completion of the experiment, the binding of the commercially available monoclonal CCR8 antibody was assessed by Flow Cytometry.
# Human CCR8-ECD-Fc [10] = biological target: T3, Human CCR8-ECD-Fc; assay: binding to HuCCR8-ECD-Fc protein, OD450-570nm
# Human CCR8-ECD-Fc [11] = biological target: T3, Human CCR8-ECD-Fc; assay: binding to HuCCR8-ECD-moFc protein (so in the source), OD45-570nm (so in the source)
# Cynomolgus CCR8-ECD-Fc [12] = biological target: T2, Cynomolgus CCR8-ECD-Fc; assay: binding to CyCCR8-ECD-huFc protein (so in the source), OD45-570nm (so in the source)
# [13] = biological target: T1, mouse CCR8 expressed on 293T cells; assay: flow cytometry, mouseCCR8-293T cells, fold geomean over secondary alone; remark: listed apart in the source
# T4 sequence (P51685 whole entry): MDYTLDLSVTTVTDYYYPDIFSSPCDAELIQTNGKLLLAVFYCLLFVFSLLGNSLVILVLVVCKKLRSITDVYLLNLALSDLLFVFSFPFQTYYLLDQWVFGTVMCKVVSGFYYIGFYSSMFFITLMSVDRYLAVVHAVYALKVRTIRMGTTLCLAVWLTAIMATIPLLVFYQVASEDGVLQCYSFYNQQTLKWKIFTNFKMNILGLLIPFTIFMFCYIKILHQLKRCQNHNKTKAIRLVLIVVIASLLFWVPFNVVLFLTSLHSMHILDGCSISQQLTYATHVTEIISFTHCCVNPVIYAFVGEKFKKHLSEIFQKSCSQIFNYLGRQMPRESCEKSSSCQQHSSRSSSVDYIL
# T5 sequence (G7NYJ2 entry or part of it): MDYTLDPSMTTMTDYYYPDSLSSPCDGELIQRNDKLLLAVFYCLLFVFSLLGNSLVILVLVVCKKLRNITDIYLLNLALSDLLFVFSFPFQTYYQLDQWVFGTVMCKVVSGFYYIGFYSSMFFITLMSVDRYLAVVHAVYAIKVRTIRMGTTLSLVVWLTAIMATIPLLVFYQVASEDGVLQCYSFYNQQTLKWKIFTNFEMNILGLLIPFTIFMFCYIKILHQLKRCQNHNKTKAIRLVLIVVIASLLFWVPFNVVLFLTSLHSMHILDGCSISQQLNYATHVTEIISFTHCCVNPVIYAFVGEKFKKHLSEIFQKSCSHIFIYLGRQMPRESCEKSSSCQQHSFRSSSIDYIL
# T6 sequence (Q06481 32-763 limits assumed): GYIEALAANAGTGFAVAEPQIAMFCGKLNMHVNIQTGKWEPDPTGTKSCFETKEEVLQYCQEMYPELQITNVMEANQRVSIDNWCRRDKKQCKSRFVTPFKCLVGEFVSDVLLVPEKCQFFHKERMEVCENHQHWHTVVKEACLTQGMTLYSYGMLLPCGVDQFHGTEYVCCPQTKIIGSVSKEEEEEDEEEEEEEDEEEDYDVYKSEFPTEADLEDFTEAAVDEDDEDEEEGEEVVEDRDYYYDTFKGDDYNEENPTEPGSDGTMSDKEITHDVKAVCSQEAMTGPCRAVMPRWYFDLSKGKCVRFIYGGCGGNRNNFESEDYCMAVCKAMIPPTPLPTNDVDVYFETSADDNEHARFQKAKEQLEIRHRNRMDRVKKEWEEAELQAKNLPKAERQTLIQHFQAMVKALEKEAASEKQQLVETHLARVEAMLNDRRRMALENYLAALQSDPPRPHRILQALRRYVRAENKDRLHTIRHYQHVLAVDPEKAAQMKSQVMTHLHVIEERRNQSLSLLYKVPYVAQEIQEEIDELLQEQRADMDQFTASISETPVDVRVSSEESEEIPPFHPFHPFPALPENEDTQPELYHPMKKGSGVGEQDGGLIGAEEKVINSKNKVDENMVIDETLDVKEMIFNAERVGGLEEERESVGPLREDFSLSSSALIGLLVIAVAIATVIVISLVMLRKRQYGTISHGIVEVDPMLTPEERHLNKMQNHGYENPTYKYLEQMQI
binding result [1],Kd [2],binding result (Cynomolgus CCR8-ECD-Fc [3]),binding result (Human CCR8-ECD-Fc [4]),EC50 (read off the curve) [5],binding result [6],Kd [7],IC50 (read off the curve) [9],binding result (Human CCR8-ECD-Fc [10]),binding result (Human CCR8-ECD-Fc [11]),binding result (Cynomolgus CCR8-ECD-Fc [12]),binding result [13],Binder,binding result [8]
no binding (tested: 10 ug/ml),1.06 nM,binds,binds,–,–,–,–,–,–,–,–,"anti-CCR8-1-2 (antibody, V domains shown, Parental-1 heavy chain with a shuffled lambda light chain; Human IgG expressed in CHO cells) VH: QVQLVQSGAEVKKPGASVKVSCKASGYTFTSYYMHWVRQAPGQGLEWMGIINPSGGSTSYAQKFQGRVTMTRDTSTSTVYMELSSLRSEDTAVYYCARGVGNGFRFDYWGQGTLVT VL: QSALTQPASVSGSPGQSITISCTGTSGDVGSYSLVSWYQHHPSRAPKLIIYEVNKRPSGVSDRFSGSKSGNTASLTITGLQAEDEAHYFCSSYTGNINLPVVFGGGTKLTVL",–
–,0.41 nM,–,–,~1 µg/mL,no binding (tested: 10 ug/ml),> 50 nM,~0.02 µg/mL,binds,–,–,–,"anti-CCR8-1 (antibody, human IgG1, V domains shown) VH: QVQLVQSGAEVKKPGASVKVSCKASGYTFTSYYMHWVRQAPGQGLEWMGIINPSGGSTSYAQKFQGRVTMTRDTSTSTVYMELSSLRSEDTAVYYCARAVRNRFRFDYWGQGTLVTVSS VL: QSALTQPASVSGSPGQSITISCTGTSSDVGSYNLVSWYQQHPGKAPKLMIYEVSKRPSGVSNRFSGSKSGNTASLTISGLQAEDEADYYCSSYAGSSTFVVFGGGTKLTVL",no binding (tested: 100 nM (top of the affinity axis))
–,1.01 nM,–,–,–,–,22.1 nM,–,–,binds,binds,no binding (tested: 10 ug/ml),"anti-CCR8-1-1 (antibody, V domains shown, Parental-1 heavy chain with a shuffled lambda light chain; Expressed from a mammalian expression vector in CHO cells as human IgG) VH: QVQLVQSGAEVKKPGASVKVSCKASGYTFTSYYMHWVRQAPGQGLEWMGIINPSGGSTSYAQKFQGRVTMTRDTSTSTVYMELSSLRSEDTAVYYCARGVGNGFRFDYWGQGTLVT VL: QSALTQPPSVSGSPGQSITISCTGTSSDVGTYNLVSWYQQHPGNAPKLMIYEVTKRPSGVSNRFSGSKSGNTATLTISGLQAEDEADYHCSSYAGSITHVVFGGGTKLTVL",–
